± gives the standard deviation of the averaged measurements.
Experiment: total protein half-life in vivo (active degradation + dilution); higher = more stable protein
[1] = E. coli NCM3722 delta-clpP delta-lon delta-hslV, growth: N-lim chemostat, doubling time 6 h
[2] = E. coli NCM3722 delta-clpP, growth: N-lim chemostat, doubling time 6 h
[3] = E. coli NCM3722 delta-hslV, growth: N-lim chemostat, doubling time 6 h
[4] = E. coli NCM3722 delta-lon, growth: N-lim chemostat, doubling time 6 h
[5] = E. coli NCM3722 delta-smpB, growth: N-lim chemostat, doubling time 6 h
[6] = wild type E. coli NCM3722, growth: C-lim chemostat, doubling time 3 h
[7] = wild type E. coli NCM3722, growth: C-lim chemostat, doubling time 6 h
[8] = wild type E. coli NCM3722, growth: C-lim chemostat, doubling time 12 h
[9] = wild type E. coli NCM3722, growth: N-lim chemostat, doubling time 6 h
[10] = wild type E. coli NCM3722, growth: N-lim chemostat, doubling time 12 h
[11] = wild type E. coli NCM3722, growth: P-lim chemostat, doubling time 6 h
[12] = wild type E. coli NCM3722, growth: P-lim chemostat, doubling time 12 h

MSHKPAHLLLVDDDPGLLKLLGLRLTSEGYSVVTAESGAEGLRVLNREKVDLVISDLRMDEMDGMQLFAEIQKVQPGMPVIILTAHGSIPDAVAATQQGVFSFLTKPVDKDALYQAIDDALEQSAPATDERWREAIVTRSPLMLRLLEQARLVAQSDVSVLINGQSGTGKEIFAQAIHNASPRNSKPFIAINCGALPEQLLESELFGHARGAFTGAVSNREGLFQAAEGGTLFLDEIGDMPAPLQVKLLRVLQERKVRPLGSNRDIDINVRIISATHRDLPKAMARGEFREDLYYRLNVVSLKIPALAERTEDIPLLANHLLRQAAERHKPFVRAFSTDAMKRLMTASWPGNVRQLVNVIEQCVALTSSPVISDALVEQALEGENTALPTFVEARNQFELNYLRKLLQITKGNVTHAARMAGRNRTEFYKLLSRHELDANDFKE [P0AFU4]
total protein half-life in vivo [1]: 6.81 ± 1.7 h
total protein half-life in vivo [2]: 4.73 ± 0.42 h
total protein half-life in vivo [3]: 4.48 ± 0.2 h
total protein half-life in vivo [4]: 5 ± 0.17 h
total protein half-life in vivo [5]: 4.45 ± 0.29 h
total protein half-life in vivo [6]: 3.25 ± 0.19 h
total protein half-life in vivo [7]: 5.86 ± 0.38 h
total protein half-life in vivo [8]: 11 ± 2.4 h
total protein half-life in vivo [9]: 4.26 ± 0.069 h
total protein half-life in vivo [10]: 7.72 ± 0.09 h
total protein half-life in vivo [11]: 5.4 ± 0.19 h
total protein half-life in vivo [12]: 12 ± 0.29 h

MKISLVVPVFNEEEAIPIFYKTVREFEELKSYEVEIVFINDGSKDATESIINALAVSDPLVVPLSFTRNFGKEPALFAGLDHATGDAIIPIDVDLQDPIEVIPHLIEKWQAGADMVLAKRSDRSTDGRLKRKTAEWFYKLHNKISNPKIEENVGDFRLMSRDVVENIKLMPERNLFMKGILSWVGGKTDIVEYVRAERIAGDTKFNGWKLWNLALEGITSFSTFPLRIWTYIGLVVASVAFIYGAWMILDTIIFGNAVRGYPSLLVSILFLGGIQMIGIGVLGEYIGRTYIETKKRPKYIIKRVKK
total protein half-life in vivo [1]: 6.26 ± 0.44 h
total protein half-life in vivo [2]: 6.88 ± 1.2 h
total protein half-life in vivo [3]: 7.42 ± 0.82 h
total protein half-life in vivo [5]: 6.23 ± 0.34 h
total protein half-life in vivo [6]: 3.54 ± 0.22 h
total protein half-life in vivo [7]: 6.05 ± 0.38 h
total protein half-life in vivo [9]: 6.19 ± 0.16 h
total protein half-life in vivo [11]: 6.08 ± 0.13 h
total protein half-life in vivo [12]: 13.7 ± 0.2 h

MFQDNPLLAQLKQQLHSQTPRAEGVVKATEKGFGFLEVDAQKSYFIPPPQMKKVMHGDRIIAVIHSEKERESAEPEELVEPFLTRFVGKVQGKNDRLAIVPDHPLLKDAIPCRAARGLNHEFKEGDWAVAEMRRHPLKGDRSFYAELTQYITFGDDHFVPWWVTLARHNLEKEAPDGVATEMLDEGLVREDLTALDFVTIDSASTEDMDDALFAKALPDDKLQLIVAIADPTAWIAEGSKLDKAAKIRAFTNYLPGFNIPMLPRELSDDLCSLRANEVRPVLACRMTLSADGTIEDNIEFFAATIESKAKLVYDQVSDWLENTGDWQPESEAIAEQVRLLAQICQRRGEWRHNHALVFKDRPDYRFILGEKGEVLDIVAEPRRIANRIVEEAMIAANICAARVLRDKLGFGIYNVHMGFDPANADALAALLKTHGLHVDAEEVLTLDGFCKLRRELDAQPTGFLDSRIRRFQSFAEISTEPGPHFGLGLEAYATWTSPIRKYGDMINHRLLKAVIKGETATRPQDEITVQMAERRRLNRMAERDVGDWLYARFLKDKAGTDTRFAAEIVDISRGGMRVRLVDNGAIAFIPAPFLHAVRDELVCSQENGTVQIKGETVYKVTDVIDVTIAEVRMETRSIIARPVA
total protein half-life in vivo [1]: 6.36 ± 1.1 h
total protein half-life in vivo [2]: 5.31 ± 0.54 h
total protein half-life in vivo [3]: 4.41 ± 0.31 h
total protein half-life in vivo [4]: 4.57 ± 0.42 h
total protein half-life in vivo [5]: 3.92 ± 0.095 h
total protein half-life in vivo [6]: 2.74 ± 0.38 h
total protein half-life in vivo [7]: 5.8 ± 0.41 h
total protein half-life in vivo [8]: 10 ± 3.6 h
total protein half-life in vivo [9]: 4.3 ± 0.15 h
total protein half-life in vivo [10]: 7.65 ± 0.77 h
total protein half-life in vivo [11]: 4.66 ± 0.14 h
total protein half-life in vivo [12]: 8.07 ± 0.19 h
